Data taken from US8487074B2, “Modulation of lipid rafts” (Lantmannen AS-Faktor AB, priority 2006, dated 2013).
No end group written: not given here.

B1: AF: antisecretory factor, a 41 kDa protein comprising 382 amino acids; the term also covers homologues, derivatives and fragments (protein, listed as Homo sapiens)
chain: MVLESTMVCVDNSEYMRNGDFLPTRLQAQQDAVNIVCHSKTRSNPENNVGLITLANDCEVLTTLTPDTGRILSKLHTVQPKGKITFCTGIRVAHLALKHRQGKNHKMRIIAFVGSPVEDNEKDLVKLAKRLKKEKVNVDIINFGEEEVNTEKLTAFVNTLNGKDGTGSHLVTVPPGPSLADALISSPILAGEGGAMLGLGASDFEFGVDPSADPELALALRVSMEEQRHAGGGARRAARASAAEAGIATTGTEDSDDALLKMTISQQEFGRTGLPDLSSMTEEEQIAYAMQMSLQGAEFGQAESADIDASSAMDTSEPAKEEDDYDVMQDPEFLQSVLENLPGVDPNNEAIRNAMGSLPPRPPRTARRTRRRKTRSETGGKG

Legend:
[1] = tested on: injured skin and cartilage; set-up: species or system rats; conditions: rat, in vivo
Protocol: In an experiment it was investigated whether the administration of AF-16 affected the healing process of injured skin and cartilage, using freeze-thaw injury to a rat ear as a model system. […] In addition 1 mg AF-16 was injected intramuscularly just after the implantation of the pump. Thereafter, a freeze-thaw injury was applied by compressing the ear in a standardized manner with the aid of a Pean's forceps, chilled in liquid nitrogen. For comparison, additional rats were treated in the same way in parallel were treated with the vehicle, PBS with 15% ethanol, only and no peptide. Additionally, normal rats, which had not been exposed to any freeze-thaw injury, were used for reference as were non-injured rats having pumps with AF-16 implanted. […] On either side bordering the injured elastic cartilage in the ear there was a formation of new hyaline cartilage. […] The amount of collagen and density of inflammatory cells were reduced in the AF-16 treated animals as compared to those having had the vehicle.

pulmonary hypertension = test: Crotaline (monocrotaline) induced pulmonary hypertension in rats; assay type: in vivo, Sprague-Dawley rats; conditions: crotaline 60 mg/kg ip; minipump infusion; assessed 18 days later; vs untreated normal controls
Protocol: Adolescent and adult rats, with a body weight of 150-300 g and of either sex, were treated experimentally to induce pulmonary hypertension and reactive alterations in the lungs. Pulmonary hypertension (PH) is defined as having a pressure in excess of the normal pulmonary artery pressure, […], usually in the range of 30-40 mm Hg. It is a progressive disease with high morbidity and mortality in humans as well as in animals. Experimental models enable investigation of the initiating mechanisms. A single treatment of rats with monocrotaline is an established approach for the induction of PH (Cf. Mathew et al., 2004). […]
The rats were anaesthetized 18 days later, and their body weights determined. […] The pressure in the right heart ventricle was assessed with the aid of a fiber optic miniature transducer system (Samba System 3200 & Samba Preclin 420 sensor; Samba Sensors AB, V. Frolunda, Sweden), inserted through the right jugular vein. […] In contrast, rats treated with crotaline (single ip injection; 60 mg/kg body weight; crotaline dissolved in PBS) and the vehicle delivered by a Alzet pump had for 18 days an pulmonary artery pressure in excess of 30 mm Hg and a hypertrophy of the right ventricle, as assessed by comparing its wet weight to that of the left ventricle and with the weight of corresponding structures of non-treated, normal rats. […]

injured skin and periost = test: Healing of calvarial skin wound and periost in rabbits; assay type: in vivo, New Zeeland albino rabbits; conditions: vs vehicle
Protocol: Adult rabbits were investigated with regard to whether the administration of AF-16 affected the healing process of injured skin and periost. […] The rabbits had either AF-16 or the vehicle injected intravenously in a marginal ear vein. The dose of AF-16 was up to 5 mg per kg body weight, twice daily. The calvarial skin wound and the injection sites in the ear were investigated macroscopically after a week. Then, specimens were dissected from both areas and prepared by fixation, embedding, sectioning and staining for light microscopic examination.

aquaporins = test: Effects of AF treatment on aquaporins after trauma, infections and other pathological conditions; assay type: in vivo; conditions: topical or systemic administration
Text: Aquaporins are a family of proteins, integrated in membranes, and expressed in all living cells and organisms. The major function of aquaporins is to control the water flow into and out of cells, i.e. between the cytoplasm of cells and the extracellular environment. Each type of cells, tissues and organs have their specific set of aquaporins with characteristic distribution patterns. Functional aquaporins are preferentially clustered in lipid rafts and caveolae, while subunits and dissociated aquaporin complexes may be demonstrable outside these membrane constituents. […] Further, at brain and spinal cord infections, e.g. encephalitis, the patterns of distribution and intensity of these two aquaporins became altered, as disclosed be immunohistochemistry and immunochemistry. The interaction between e.g. neurons and supporting glial cells and vascular structures seems to be intricate and complex, but important.
Experiments are performed mapping in more detail regarding effects of trauma, infections and other pathological conditions. […] Effects are characterized quantitatively and qualitatively and the importance of effects on the structure and functions of the different types of aquaporins in a body. […]

Molecule | structures in the ear of non-injured rats [1] | general appearance and body weight (pulmonary hypertension) | frequency of caveolae (injured skin and periost) | prevalence, distribution and activity of aquaporins and ion channel complexes (aquaporins)
VCHSKTRSNPENNVGL [AF-16, VCHSKTRSNPENNVGL] | did not alter the structures in the ear |  |  | 
B1 |  | appeared healthy and had almost the same weight and appearance as the controls | more normal | great impact in monitoring and even normalizing
